Non-standard residues stand in square brackets, D forms with d. No end group written: not given here. pS = N[C@@H](COP(=O)(O)O)C(=O)O
T1: 14-3-3σ (UniProt P31947 1-248)
T1 construct: 14-3-3σ (sigma isoform of 14-3-3, SFN), the protein titrated in the fluorescence anisotropy assays; With the covalent compounds of the FA assays C38 becomes modified in the sample; also called sigma isoform
T1 sequence (looked up): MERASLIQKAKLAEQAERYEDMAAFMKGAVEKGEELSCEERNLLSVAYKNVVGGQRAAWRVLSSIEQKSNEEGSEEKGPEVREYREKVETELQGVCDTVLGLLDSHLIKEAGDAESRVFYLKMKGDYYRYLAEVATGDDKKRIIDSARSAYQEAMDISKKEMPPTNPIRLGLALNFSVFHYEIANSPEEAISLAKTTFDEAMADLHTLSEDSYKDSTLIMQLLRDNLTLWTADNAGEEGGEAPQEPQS


Tests used:
B-RAF (NanoBRET fusion) = target: T2, B-RAF (NanoBRET fusion) (UniProt P15056 1-766); assay: FRET or BRET; NanoBRET in HEK293T cells: RAF tagged with NanoLuciferase, 14-3-3σ with HaloTag/fluorescent HaloTag ligand; dose responses of compounds against DMSO; conditions: partners not purified
T2 construct: B-RAF, full-length RAF client of the cell assays; Used in the 14-3-3σ/B-RAF and the B-RAF/C-RAF NanoBRET assays; the fusion partner may differ between them; The cell line is told for the first NanoBRET assays only; source: HEK293T, transfected, in cells; not shown: NanoLuciferase or HaloTag (from the NanoBRET method)
T2 sequence (P15056 whole entry, the tested form may be a part): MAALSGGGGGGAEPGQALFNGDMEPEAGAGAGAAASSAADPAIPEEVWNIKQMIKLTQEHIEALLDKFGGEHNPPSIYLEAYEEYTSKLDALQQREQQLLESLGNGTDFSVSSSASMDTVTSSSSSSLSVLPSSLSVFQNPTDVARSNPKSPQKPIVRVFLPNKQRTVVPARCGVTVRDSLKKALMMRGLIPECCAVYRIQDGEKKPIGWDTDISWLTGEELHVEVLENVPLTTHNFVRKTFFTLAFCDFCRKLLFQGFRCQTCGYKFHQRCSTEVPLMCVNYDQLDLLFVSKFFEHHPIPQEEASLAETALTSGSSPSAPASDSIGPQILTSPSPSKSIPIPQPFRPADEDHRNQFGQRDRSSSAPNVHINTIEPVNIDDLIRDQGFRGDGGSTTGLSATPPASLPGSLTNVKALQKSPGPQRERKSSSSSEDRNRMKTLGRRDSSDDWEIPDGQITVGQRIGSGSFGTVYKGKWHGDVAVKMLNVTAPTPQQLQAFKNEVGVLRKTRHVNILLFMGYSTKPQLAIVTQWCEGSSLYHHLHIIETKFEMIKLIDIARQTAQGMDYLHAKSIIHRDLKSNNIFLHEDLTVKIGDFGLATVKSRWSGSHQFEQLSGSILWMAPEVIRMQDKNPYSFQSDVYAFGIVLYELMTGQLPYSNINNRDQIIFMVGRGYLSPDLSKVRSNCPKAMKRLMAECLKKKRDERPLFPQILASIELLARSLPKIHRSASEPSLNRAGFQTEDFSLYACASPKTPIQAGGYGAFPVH

A-RAF (NanoBRET fusion) = target: T3, A-RAF (NanoBRET fusion) (UniProt P10398 1-606); assay: as above; conditions: partners not purified
T3 construct: A-RAF, full-length RAF client of the cell assays; Used in the 14-3-3σ/A-RAF and the A-RAF/C-RAF NanoBRET assays; the fusion partner may differ between them; The cell line is told for the first NanoBRET assays only; source: HEK293T, transfected, in cells; not shown: NanoLuciferase or HaloTag (from the NanoBRET method)

[1] = target: T4, C-RAF-NanoLuciferase (Nluc) (UniProt P04049 1-648); assay: as above; conditions: partners not purified
T4 construct: C-RAF, full-length RAF client of the cell assays; source: HEK293T, transfected, in cells

14-3-3σ = target: T1, 14-3-3σ; assay: fluorescence polarisation; fluorescence anisotropy protein titration: 14-3-3σ titrated into 10 nM labeled peptide in the presence of DMSO; apparent; conditions: both partners purified

fold increase (BRET signal) with 22 (B-RAF (NanoBRET fusion))	fold increase (BRET signal) with 23 (B-RAF (NanoBRET fusion))	fold increase (BRET signal) with 10 μM 22 (A-RAF (NanoBRET fusion))	fold increase (BRET signal) with 10 μM 23 (A-RAF (NanoBRET fusion))	fold stabilization (BRET signal) with 22 against DMSO [1]	fold stabilization (BRET signal) with 23 against DMSO [1]	fold stabilization (BRET signal) with 70 against DMSO [1]	fold stabilization (BRET signal) with 78 against DMSO [1]	Kd (14-3-3σ)	Binder
1.4 fold	1.4 fold	1.6 fold	1.7 fold	1.5 fold	1.6 fold	1.3 fold	1.4 fold	–	14-3-3σ-Halotag (HT) (natural protein, UniProt P31947 1-248, looked up, fluorescent HaloTag ligand on the HaloTag, 14-3-3σ, full length, for NanoBRET; also called full-length 14-3-3σ; source: HEK293T, transfected, in cells) MERASLIQKAKLAEQAERYEDMAAFMKGAVEKGEELSCEERNLLSVAYKNVVGGQRAAWRVLSSIEQKSNEEGSEEKGPEVREYREKVETELQGVCDTVLGLLDSHLIKEAGDAESRVFYLKMKGDYYRYLAEVATGDDKKRIIDSARSAYQEAMDISKKEMPPTNPIRLGLALNFSVFHYEIANSPEEAISLAKTTFDEAMADLHTLSEDSYKDSTLIMQLLRDNLTLWTADNAGEEGGEAPQEPQS
–	–	–	–	–	–	–	–	8.43 µM	QRST[pS]TPNVH (also: FAM label, site not given here) [FAM-labeled C-RAF259 peptide (10-mer)]
